Reference: patent US20210317225A1 (Genmab, published 2021)

B1: CD40-001-FEALxCD137-012-FEAR (bispecific antibody, human IgG1, kappa)
heavy 1: EVQLQQSGPDLVKPGASVKISCKTSGYTFTEYIMHWVKQSHGKSLEWIGGIIPNNGGTSYNQKFKDKATMTVDKSSSTGYMELRSLTSEDSAVYYCTRREVYGRNYYALDYWGQGTLVTVSSASTKGPSVFPLAPSSKSTSGGTAALGCLVKDYFPEPVTVSWNSGALTSGVHTFPAVLQSSGLYSLSSVVTVPSSSLGTQTYICNVNHKPSNTKVDKRVEPKSCDKTHTCPPCPAPEFEGGPSVFLFPPKPKDTLMISRTPEVTCVVVAVSHEDPEVKFNWYVDGVEVHNAKTKPREEQYNSTYRVVSVLTVLHQDWLNGKEYKCKVSNKALPAPIEKTISKAKGQPREPQVYTLPPSREEMTKNQVSLTCLVKGFYPSDIAVEWESNGQPENNYKTTPPVLDSDGSFLLYSKLTVDKSRWQQGNVFSCSVMHEALHNHYTQKSLSLSPGK
light 1: DIQMTQTTSSLSASLGDRVTITCSASQGINNYLNWYQQKPDGTVKLLIYYTSSLHSGVPSRFSGSGSGTDYSLTISNLEPEDIATYYCQQYSNLPYTFGGGTKLEIKRTVAAPSVFIFPPSDEQLKSGTASVVCLLNNFYPREAKVQWKVDNALQSGNSQESVTEQDSKDSTYSLSSTLTLSKADYEKHKVYACEVTHQGLSSPVTKSFNRGEC
heavy 2: QSVEESGGRLVTPGTPLTLTCTVSGFSLSDYYMTWVRQAPGKGLEYIGIMSGSGSTYYASWAKGRFTISKTSSTTLELKITSPTTEDTAIYFCARDGDYAGWGYATGAFDPWGPGTLVTVSSASTKGPSVFPLAPSSKSTSGGTAALGCLVKDYFPEPVTVSWNSGALTSGVHTFPAVLQSSGLYSLSSVVTVPSSSLGTQTYICNVNHKPSNTKVDKRVEPKSCDKTHTCPPCPAPEFEGGPSVFLFPPKPKDTLMISRTPEVTCVVVAVSHEDPEVKFNWYVDGVEVHNAKTKPREEQYNSTYRVVSVLTVLHQDWLNGKEYKCKVSNKALPAPIEKTISKAKGQPREPQVYTLPPSREEMTKNQVSLTCLVKGFYPSDIAVEWESNGQPENNYKTTPPVLDSDGSFFLYSRLTVDKSRWQQGNVFSCSVMHEALHNHYTQKSLSLSPGK
light 2: AAVLTQTPSPVSAAVGGTVTISCQASQSVVGNSLLSWFQKKPGQPPKLLIYSASSLASGVPSRFKGSGSGTQFTLTISDLESDDAATYYCTGRYNSDTDTFVFGGGTEVVVKRTVAAPSVFIFPPSDEQLKSGTASVVCLLNNFYPREAKVQWKVDNALQSGNSQESVTEQDSKDSTYSLSSTLTLSKADYEKHKVYACEVTHQGLSSPVTKSFNRGEC
B2: CD40-001-FEALxCD137-002-FEAR (bispecific antibody, human IgG1, kappa)
heavy 1: B1 heavy 1
light 1: B1 light 1
heavy 2: QSVEESGGRLVTPGTPLTLTCTVSGFSLTYYAVTWVRQPPGKGLEWIGVIYDNGATAFATWAKGRFTMSKNSTTVALKVTSPTTEDTATYFCARSANNAWSTYSNLWGQGTLVTVSSASTKGPSVFPLAPSSKSTSGGTAALGCLVKDYFPEPVTVSWNSGALTSGVHTFPAVLQSSGLYSLSSVVTVPSSSLGTQTYICNVNHKPSNTKVDKRVEPKSCDKTHTCPPCPAPEFEGGPSVFLFPPKPKDTLMISRTPEVTCVVVAVSHEDPEVKFNWYVDGVEVHNAKTKPREEQYNSTYRVVSVLTVLHQDWLNGKEYKCKVSNKALPAPIEKTISKAKGQPREPQVYTLPPSREEMTKNQVSLTCLVKGFYPSDIAVEWESNGQPENNYKTTPPVLDSDGSFFLYSRLTVDKSRWQQGNVFSCSVMHEALHNHYTQKSLSLSPGK
light 2: DIVMTQTPSSVSAAVGGTVTINCQASEDISSYLSWYQQKLGQPPKLLIYKASTLESGVPSRFKGSGSGTEYTLTISDLESDDAATYYCQSYYSGSISGYGFVFGGGTGVVVKRTVAAPSVFIFPPSDEQLKSGTASVVCLLNNFYPREAKVQWKVDNALQSGNSQESVTEQDSKDSTYSLSSTLTLSKADYEKHKVYACEVTHQGLSSPVTKSFNRGEC
B3: CD40-001-FEALxCD137-003-FEAR (bispecific antibody, human IgG1, kappa)
heavy 1: B1 heavy 1
light 1: B1 light 1
heavy 2: QSVEESGGRLVTPGTPLTLTCTASGFTISSYHMIWVRQAPGEGLEWIGDIYGGTATTDYASWAKGRFTISKTSTTVDLKMTSLTTEDTATYFCARARYSGGSYANYVFNLWGQGTLVTVSSASTKGPSVFPLAPSSKSTSGGTAALGCLVKDYFPEPVTVSWNSGALTSGVHTFPAVLQSSGLYSLSSVVTVPSSSLGTQTYICNVNHKPSNTKVDKRVEPKSCDKTHTCPPCPAPEFEGGPSVFLFPPKPKDTLMISRTPEVTCVVVAVSHEDPEVKFNWYVDGVEVHNAKTKPREEQYNSTYRVVSVLTVLHQDWLNGKEYKCKVSNKALPAPIEKTISKAKGQPREPQVYTLPPSREEMTKNQVSLTCLVKGFYPSDIAVEWESNGQPENNYKTTPPVLDSDGSFFLYSRLTVDKSRWQQGNVFSCSVMHEALHNHYTQKSLSLSPGK
light 2: DIVMTQTPASVEAAVGGTVTIKCQASQSISSYLAWYQQKPGQPPKLLIYRTSTLESGVPSRFKGSGSGTEFTLTISDLESADAATYYCQGYDWSSSNRYDNTFGGGTEVVVKRTVAAPSVFIFPPSDEQLKSGTASVVCLLNNFYPREAKVQWKVDNALQSGNSQESVTEQDSKDSTYSLSSTLTLSKADYEKHKVYACEVTHQGLSSPVTKSFNRGEC
B4: CD40-001-FEALxCD137-004-FEAR (bispecific antibody, human IgG1, kappa)
heavy 1: B1 heavy 1
light 1: B1 light 1
heavy 2: QSLEESGGRLVTPGTPLTLTCTASGFSLSRYDMSWVRQAPGKGLEYIGVISSSGGTNYANWAKGRFTISKTSTTVDLKITSPTTEDTATYFCAREGDYWDFNLWGPGTLVTVSSASTKGPSVFPLAPSSKSTSGGTAALGCLVKDYFPEPVTVSWNSGALTSGVHTFPAVLQSSGLYSLSSVVTVPSSSLGTQTYICNVNHKPSNTKVDKRVEPKSCDKTHTCPPCPAPEFEGGPSVFLFPPKPKDTLMISRTPEVTCVVVAVSHEDPEVKFNWYVDGVEVHNAKTKPREEQYNSTYRVVSVLTVLHQDWLNGKEYKCKVSNKALPAPIEKTISKAKGQPREPQVYTLPPSREEMTKNQVSLTCLVKGFYPSDIAVEWESNGQPENNYKTTPPVLDSDGSFFLYSRLTVDKSRWQQGNVFSCSVMHEALHNHYTQKSLSLSPGK
light 2: AQVLTQTPSSVSAAVGGTVTINCQASQSISNLLAWYQQKPGQPPKLLIYGASTLASGVPSRFSGSGSGTEFTLTISDLESDDAATYYCAGGFPGLDTVAAFGGGTEAVVTRTVAAPSVFIFPPSDEQLKSGTASVVCLLNNFYPREAKVQWKVDNALQSGNSQESVTEQDSKDSTYSLSSTLTLSKADYEKHKVYACEVTHQGLSSPVTKSFNRGEC

What was measured:
Human CD40 = Human CD40 (human, UniProt P25942 21-277); assay: cell-based or functional assay
Human CD137 (TNR9_Human) = Human CD137 (TNR9_Human) (human, UniProt Q07011 24-255); assay: cell-based or functional assay
Sequence of Human CD137 (TNR9_Human) (Q07011 24-255): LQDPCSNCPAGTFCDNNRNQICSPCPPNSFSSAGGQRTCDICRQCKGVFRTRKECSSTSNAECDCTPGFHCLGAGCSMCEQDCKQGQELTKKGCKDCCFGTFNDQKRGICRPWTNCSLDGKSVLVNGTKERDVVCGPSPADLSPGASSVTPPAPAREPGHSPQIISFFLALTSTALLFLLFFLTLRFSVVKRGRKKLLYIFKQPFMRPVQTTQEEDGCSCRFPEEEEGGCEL

Sequence of Human CD40 (P25942 21-277): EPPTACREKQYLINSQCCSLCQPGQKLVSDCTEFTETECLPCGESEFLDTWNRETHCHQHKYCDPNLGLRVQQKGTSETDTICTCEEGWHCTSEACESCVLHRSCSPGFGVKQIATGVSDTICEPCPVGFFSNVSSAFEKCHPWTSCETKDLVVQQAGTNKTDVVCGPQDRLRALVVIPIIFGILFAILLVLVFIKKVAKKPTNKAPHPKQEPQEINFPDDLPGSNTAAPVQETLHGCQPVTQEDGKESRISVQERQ

| luciferase activity (RLU) of NF-KB/293/GFP-Luc cells transduced with CD40, incubated with K562_CD137 (Human CD40) [ng/mL] | luciferase activity (RLU) of NF-KB/293/GFP-Luc cells transduced with CD137, incubated with K562_CD40 (Human CD137 (TNR9_Human)) [ng/mL] | Binder |
| --- | --- | --- |
| ~100 | ~100 | B1 |
| ~100 | ~100 | B2 |
| ~100 | ~100 | B3 |
| ~100 | ~100 | B4 |
